Assays:
[1] = target: T1, human ORC1-5 (HsORC1-5, with ORC1ΔN) (Homo sapiens, UniProt O43929+Q13415, O43929:N78S/Q13415:R720Q); assay: NADH-coupled steady-state ATPase assay; type: biochemical; details: ATP 0.13 uM to 0.5 mM, 1 uM ORC, 10 mM Mg acetate, 300 mM K glutamate, pH 7.6, 37 C; ORC1-ORC4 ATPase site
T1 construct: ORC1 N-terminally truncated (ORC1ΔN399, probably starts at residue 400), ORC4 with natural variant N78S; 6xHis-TEV (ORC1) and MBP-TEV (ORC4) tags cleaved; baculovirus/High Five cells; ORC6 not included; with Origin recognition complex subunit 2; Origin recognition complex subunit 3; Origin recognition complex subunit 5

ORC1-5 ORC1 R720Q = ORC1-5 ORC1 R720Q (human, UniProt Q13415;Q13416;Q9UBD5;O43929;O43913 400-861;1-577;1-711;1-436;1-435, R720Q;N78S); assay: fluorescence anisotropy; 1 mM ATP, 10 mM Mg acetate; 25 mM HEPES-KOH pH 7.6, 300 mM K glutamate, 10% glycerol, 1 mM DTT, 10 mM Mg acetate, 0.01% NP-40, 0 or 1 mM ATP, 1 nM DNA, 30 min at 22 °C; Hill fit (Kd,app); details: protein: recombinant; tags: 6xHis-TEV (ORC1) and MBP-TEV (ORC4), cleaved by TEV; copies: 1;1;1;1;1; label: 5' fluorescein-T on strand 1; blunt (40 bp; possible 1 nt 5' FluorT overhang)
ORC1-5 ORC4 Y174C = ORC1-5 ORC4 Y174C (human, UniProt Q13415;Q13416;Q9UBD5;O43929;O43913 400-861;1-577;1-711;1-436;1-435, Y174C;ORC4:N78S); assay: as above; details: protein: recombinant; tags: 6xHis-TEV (ORC1) and MBP-TEV (ORC4), cleaved by TEV; copies: 1;1;1;1;1; label: 5' fluorescein-T on strand 1; blunt (40 bp; possible 1 nt 5' FluorT overhang)
ORC1-5 ORC1 R666W = ORC1-5 ORC1 R666W (human, UniProt Q13415;Q13416;Q9UBD5;O43929;O43913 400-861;1-577;1-711;1-436;1-435, R666W;N78S); assay: as above; details: protein: recombinant; tags: 6xHis-TEV (ORC1) and MBP-TEV (ORC4), cleaved by TEV; copies: 1;1;1;1;1; label: 5' fluorescein-T on strand 1; blunt (40 bp; possible 1 nt 5' FluorT overhang)
ORC1-5 (WT, ORC1ΔN) = ORC1-5 (WT, ORC1ΔN) (human, UniProt Q13415;Q13416;Q9UBD5;O43929;O43913 400-861;1-577;1-711;1-436;1-435, N78S); assay: as above; details: protein: recombinant; tags: 6xHis-TEV (ORC1) and MBP-TEV (ORC4), cleaved by TEV; copies: 1;1;1;1;1; label: 5' fluorescein-T on strand 1; blunt (40 bp; possible 1 nt 5' FluorT overhang)

T1 sequence (Q13415 400-861 R720Q): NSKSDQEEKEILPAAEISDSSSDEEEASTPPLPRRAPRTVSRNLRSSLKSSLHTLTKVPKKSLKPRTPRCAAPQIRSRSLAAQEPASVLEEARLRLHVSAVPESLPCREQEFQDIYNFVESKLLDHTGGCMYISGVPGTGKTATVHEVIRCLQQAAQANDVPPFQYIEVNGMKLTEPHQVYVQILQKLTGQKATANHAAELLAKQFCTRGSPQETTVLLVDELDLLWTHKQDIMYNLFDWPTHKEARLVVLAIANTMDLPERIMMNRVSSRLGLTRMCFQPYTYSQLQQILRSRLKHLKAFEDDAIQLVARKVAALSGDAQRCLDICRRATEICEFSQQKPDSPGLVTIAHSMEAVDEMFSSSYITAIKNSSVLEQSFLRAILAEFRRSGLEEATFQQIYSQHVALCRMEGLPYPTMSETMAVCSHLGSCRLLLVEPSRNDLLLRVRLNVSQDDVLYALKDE
T1 sequence (O43929 whole entry N78S, the tested form may be a part): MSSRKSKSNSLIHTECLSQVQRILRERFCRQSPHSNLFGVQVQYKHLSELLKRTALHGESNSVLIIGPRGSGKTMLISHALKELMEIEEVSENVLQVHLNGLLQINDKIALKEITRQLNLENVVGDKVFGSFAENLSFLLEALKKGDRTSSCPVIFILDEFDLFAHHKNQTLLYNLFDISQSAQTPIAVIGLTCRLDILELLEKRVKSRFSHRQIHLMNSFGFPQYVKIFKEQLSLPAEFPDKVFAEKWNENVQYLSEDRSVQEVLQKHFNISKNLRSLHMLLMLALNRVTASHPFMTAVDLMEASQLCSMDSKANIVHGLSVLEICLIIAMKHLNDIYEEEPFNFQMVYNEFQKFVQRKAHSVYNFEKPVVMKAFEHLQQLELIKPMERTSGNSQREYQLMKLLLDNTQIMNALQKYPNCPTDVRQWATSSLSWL
T1 sequence (Q13416 whole entry partner, the tested form may be a part): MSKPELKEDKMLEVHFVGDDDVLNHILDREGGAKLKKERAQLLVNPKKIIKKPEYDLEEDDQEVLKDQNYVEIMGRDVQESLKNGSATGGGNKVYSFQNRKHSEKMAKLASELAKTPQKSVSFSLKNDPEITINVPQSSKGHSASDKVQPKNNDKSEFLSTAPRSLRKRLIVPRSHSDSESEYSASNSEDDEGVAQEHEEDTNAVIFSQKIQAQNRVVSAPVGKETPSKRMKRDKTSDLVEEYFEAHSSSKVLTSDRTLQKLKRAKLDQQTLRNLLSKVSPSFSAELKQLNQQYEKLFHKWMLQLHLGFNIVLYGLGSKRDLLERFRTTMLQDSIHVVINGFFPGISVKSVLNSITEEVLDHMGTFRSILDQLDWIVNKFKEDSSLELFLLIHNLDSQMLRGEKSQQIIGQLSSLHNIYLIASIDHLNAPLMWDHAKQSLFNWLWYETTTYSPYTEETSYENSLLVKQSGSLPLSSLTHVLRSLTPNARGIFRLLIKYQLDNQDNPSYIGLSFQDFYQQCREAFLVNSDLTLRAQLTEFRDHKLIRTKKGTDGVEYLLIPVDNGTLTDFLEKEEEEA
T1 sequence (Q9UBD5 whole entry partner, the tested form may be a part): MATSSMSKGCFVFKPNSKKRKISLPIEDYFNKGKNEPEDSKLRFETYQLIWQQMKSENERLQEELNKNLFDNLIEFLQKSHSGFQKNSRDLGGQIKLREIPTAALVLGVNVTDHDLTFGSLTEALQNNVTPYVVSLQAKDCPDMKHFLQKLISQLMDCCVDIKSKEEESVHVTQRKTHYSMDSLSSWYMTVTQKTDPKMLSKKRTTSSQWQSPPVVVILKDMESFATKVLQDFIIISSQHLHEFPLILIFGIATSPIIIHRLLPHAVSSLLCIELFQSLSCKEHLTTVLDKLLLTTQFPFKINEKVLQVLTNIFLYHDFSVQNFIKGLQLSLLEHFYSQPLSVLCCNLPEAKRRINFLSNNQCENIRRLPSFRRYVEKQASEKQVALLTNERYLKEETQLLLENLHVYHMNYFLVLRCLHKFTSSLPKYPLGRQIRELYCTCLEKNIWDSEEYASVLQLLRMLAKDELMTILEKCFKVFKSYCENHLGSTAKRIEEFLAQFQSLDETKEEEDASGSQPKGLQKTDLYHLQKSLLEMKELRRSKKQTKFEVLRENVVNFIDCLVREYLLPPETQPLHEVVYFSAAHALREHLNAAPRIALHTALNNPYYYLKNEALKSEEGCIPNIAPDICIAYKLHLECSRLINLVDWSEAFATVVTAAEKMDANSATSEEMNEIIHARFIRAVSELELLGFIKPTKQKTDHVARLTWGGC
T1 sequence (O43913 whole entry partner, the tested form may be a part): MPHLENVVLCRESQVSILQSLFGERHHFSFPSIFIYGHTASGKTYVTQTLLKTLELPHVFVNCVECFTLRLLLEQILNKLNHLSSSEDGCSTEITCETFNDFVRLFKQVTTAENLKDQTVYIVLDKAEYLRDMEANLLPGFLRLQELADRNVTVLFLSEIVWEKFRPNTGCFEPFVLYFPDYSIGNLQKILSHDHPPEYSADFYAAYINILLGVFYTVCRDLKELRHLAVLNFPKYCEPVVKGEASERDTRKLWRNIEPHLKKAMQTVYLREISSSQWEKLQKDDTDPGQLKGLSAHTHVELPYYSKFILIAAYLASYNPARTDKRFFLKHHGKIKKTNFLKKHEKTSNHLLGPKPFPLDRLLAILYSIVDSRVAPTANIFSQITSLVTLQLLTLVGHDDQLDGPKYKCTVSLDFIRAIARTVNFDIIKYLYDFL

## Nc1ncnc2c1ncn2[C@@H]1O[C@H](COP(=O)(O)OP(=O)(O)OP(=O)(O)O)[C@@H](O)[C@H]1O [ATP]
[1]
  NADH-coupled steady-state ATPase assay: with the largest ATP hydrolysis defect observed with ORC1R720Q

B1: 40 bp fluorescein dsDNA (dsDNA)
DNA 1: TTTTGAAAAGCAAGCATAAAAGATCTAAACATAAAATCTG
DNA 2: CAGATTTTATGTTTAGATCTTTTATGCTTGCTTTTCAAAA
ORC1-5 ORC1 R720Q
  binding result: no binding
ORC1-5 ORC4 Y174C
  binding result: no binding
ORC1-5 ORC1 R666W
  Kd: 49.9 nM
ORC1-5 (WT, ORC1ΔN)
  Kd: 37.6 nM
